Assay results reported in patent US20240425885.

Experiments:
Test in all cases: cleavage_in_vitro
[1] = tested on: OMNI-119 (metagenomic, unknown); conditions: TXTL; PAM NNACNNNN
[2] = tested on: OMNI-110 (metagenomic, unknown); conditions: TXTL; PAM NNRTNCNN
[3] = tested on: T1, OMNI-116 (metagenomic, unknown); conditions: TXTL; PAM NRGGACNN
T1 sequence: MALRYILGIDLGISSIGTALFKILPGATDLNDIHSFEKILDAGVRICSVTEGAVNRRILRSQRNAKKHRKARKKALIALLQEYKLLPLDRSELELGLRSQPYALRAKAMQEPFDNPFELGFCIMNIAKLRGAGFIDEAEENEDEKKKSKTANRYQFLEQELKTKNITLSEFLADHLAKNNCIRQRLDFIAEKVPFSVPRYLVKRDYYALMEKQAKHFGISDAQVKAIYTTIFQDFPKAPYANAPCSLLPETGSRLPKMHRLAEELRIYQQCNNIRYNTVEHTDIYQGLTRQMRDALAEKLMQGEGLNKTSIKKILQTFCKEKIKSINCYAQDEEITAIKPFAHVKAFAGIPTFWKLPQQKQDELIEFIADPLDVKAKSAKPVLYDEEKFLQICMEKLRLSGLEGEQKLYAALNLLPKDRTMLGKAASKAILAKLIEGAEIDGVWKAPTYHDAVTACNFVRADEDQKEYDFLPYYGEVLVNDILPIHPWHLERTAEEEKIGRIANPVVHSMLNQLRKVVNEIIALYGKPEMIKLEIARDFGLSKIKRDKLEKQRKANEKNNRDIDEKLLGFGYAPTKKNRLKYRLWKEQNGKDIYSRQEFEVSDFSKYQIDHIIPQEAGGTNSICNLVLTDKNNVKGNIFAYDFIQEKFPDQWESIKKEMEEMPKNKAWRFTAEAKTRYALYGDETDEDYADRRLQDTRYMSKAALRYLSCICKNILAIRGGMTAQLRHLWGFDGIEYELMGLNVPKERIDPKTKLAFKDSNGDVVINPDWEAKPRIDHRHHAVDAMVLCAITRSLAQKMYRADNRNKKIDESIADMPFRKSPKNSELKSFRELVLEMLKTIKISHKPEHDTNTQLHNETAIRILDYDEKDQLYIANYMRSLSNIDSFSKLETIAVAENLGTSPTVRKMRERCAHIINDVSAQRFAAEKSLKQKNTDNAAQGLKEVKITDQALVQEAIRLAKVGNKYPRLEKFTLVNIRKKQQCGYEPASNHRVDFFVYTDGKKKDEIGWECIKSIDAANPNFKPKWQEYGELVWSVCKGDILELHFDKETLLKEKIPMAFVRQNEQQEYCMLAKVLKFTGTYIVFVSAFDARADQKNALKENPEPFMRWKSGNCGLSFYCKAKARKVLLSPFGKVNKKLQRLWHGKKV

[4] = tested on: T2, OMNI-114 (metagenomic, unknown); conditions: TXTL; PAM NRGGACNN
T2 sequence: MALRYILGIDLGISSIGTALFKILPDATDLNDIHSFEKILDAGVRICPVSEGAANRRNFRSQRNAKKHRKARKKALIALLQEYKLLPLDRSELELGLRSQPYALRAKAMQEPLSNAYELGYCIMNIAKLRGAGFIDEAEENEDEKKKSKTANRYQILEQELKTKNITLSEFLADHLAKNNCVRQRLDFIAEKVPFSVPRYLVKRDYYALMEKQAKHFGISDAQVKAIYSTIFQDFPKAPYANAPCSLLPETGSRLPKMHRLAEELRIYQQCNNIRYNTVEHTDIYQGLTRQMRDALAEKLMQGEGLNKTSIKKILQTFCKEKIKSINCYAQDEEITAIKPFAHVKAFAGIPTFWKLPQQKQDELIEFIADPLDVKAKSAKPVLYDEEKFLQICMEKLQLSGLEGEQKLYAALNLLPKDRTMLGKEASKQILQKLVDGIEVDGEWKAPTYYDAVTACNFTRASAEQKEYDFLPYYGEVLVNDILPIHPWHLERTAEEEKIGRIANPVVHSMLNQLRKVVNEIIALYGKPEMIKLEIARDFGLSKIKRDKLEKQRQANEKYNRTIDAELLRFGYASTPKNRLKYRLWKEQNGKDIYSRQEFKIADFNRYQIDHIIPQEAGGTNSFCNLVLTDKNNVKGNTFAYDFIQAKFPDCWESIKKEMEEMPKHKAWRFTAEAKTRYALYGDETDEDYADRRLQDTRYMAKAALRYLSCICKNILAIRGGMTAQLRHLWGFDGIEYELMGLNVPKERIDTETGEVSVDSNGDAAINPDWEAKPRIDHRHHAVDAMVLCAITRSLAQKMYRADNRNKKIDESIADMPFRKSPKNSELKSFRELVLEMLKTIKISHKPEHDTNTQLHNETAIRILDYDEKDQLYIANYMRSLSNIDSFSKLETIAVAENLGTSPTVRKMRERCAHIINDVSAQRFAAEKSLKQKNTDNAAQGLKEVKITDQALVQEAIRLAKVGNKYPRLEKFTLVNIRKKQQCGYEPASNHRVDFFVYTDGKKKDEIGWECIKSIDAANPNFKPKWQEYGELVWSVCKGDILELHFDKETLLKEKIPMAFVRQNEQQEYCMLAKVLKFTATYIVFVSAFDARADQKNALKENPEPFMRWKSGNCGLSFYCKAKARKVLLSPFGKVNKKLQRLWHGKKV

[5] = tested on: T3, OMNI-120 (metagenomic, unknown); conditions: TXTL; PAM NRVACNNN
T3 sequence: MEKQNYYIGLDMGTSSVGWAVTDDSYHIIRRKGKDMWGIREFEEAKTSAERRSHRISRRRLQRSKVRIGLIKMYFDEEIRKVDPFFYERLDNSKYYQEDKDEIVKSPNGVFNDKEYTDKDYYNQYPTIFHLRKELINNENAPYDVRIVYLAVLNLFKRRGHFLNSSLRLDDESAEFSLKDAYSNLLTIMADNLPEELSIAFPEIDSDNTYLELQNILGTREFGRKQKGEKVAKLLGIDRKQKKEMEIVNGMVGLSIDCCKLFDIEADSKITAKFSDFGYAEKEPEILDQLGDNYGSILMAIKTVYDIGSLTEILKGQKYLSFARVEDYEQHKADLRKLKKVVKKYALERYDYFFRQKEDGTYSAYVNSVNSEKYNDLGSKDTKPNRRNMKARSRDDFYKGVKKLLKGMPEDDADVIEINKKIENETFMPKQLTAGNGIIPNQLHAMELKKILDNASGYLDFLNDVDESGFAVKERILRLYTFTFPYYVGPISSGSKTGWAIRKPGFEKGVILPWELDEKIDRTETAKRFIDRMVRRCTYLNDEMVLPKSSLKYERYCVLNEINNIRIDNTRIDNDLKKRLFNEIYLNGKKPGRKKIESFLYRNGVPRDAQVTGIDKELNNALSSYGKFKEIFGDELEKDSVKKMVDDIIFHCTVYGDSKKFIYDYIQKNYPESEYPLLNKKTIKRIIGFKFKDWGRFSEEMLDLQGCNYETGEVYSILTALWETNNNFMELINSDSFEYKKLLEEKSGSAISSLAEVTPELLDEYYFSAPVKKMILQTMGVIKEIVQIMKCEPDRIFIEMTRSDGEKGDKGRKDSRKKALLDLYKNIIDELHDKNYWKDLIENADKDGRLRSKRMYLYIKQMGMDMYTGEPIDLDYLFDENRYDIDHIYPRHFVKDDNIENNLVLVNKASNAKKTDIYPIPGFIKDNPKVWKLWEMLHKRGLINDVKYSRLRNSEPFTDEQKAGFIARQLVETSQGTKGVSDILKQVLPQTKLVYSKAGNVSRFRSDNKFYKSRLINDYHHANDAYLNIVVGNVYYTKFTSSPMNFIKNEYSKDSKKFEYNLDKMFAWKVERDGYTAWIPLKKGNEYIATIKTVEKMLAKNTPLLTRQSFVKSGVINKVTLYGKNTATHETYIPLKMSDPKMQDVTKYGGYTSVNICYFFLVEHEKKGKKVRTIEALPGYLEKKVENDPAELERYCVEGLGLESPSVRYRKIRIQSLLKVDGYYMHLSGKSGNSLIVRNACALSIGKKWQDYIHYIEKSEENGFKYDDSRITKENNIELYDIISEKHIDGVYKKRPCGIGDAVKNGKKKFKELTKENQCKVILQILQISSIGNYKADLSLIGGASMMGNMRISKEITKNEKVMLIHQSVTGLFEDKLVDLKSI

[6] = tested on: T4, OMNI-109 (metagenomic, unknown); conditions: TXTL; PAM NNAARCNN
T4 sequence: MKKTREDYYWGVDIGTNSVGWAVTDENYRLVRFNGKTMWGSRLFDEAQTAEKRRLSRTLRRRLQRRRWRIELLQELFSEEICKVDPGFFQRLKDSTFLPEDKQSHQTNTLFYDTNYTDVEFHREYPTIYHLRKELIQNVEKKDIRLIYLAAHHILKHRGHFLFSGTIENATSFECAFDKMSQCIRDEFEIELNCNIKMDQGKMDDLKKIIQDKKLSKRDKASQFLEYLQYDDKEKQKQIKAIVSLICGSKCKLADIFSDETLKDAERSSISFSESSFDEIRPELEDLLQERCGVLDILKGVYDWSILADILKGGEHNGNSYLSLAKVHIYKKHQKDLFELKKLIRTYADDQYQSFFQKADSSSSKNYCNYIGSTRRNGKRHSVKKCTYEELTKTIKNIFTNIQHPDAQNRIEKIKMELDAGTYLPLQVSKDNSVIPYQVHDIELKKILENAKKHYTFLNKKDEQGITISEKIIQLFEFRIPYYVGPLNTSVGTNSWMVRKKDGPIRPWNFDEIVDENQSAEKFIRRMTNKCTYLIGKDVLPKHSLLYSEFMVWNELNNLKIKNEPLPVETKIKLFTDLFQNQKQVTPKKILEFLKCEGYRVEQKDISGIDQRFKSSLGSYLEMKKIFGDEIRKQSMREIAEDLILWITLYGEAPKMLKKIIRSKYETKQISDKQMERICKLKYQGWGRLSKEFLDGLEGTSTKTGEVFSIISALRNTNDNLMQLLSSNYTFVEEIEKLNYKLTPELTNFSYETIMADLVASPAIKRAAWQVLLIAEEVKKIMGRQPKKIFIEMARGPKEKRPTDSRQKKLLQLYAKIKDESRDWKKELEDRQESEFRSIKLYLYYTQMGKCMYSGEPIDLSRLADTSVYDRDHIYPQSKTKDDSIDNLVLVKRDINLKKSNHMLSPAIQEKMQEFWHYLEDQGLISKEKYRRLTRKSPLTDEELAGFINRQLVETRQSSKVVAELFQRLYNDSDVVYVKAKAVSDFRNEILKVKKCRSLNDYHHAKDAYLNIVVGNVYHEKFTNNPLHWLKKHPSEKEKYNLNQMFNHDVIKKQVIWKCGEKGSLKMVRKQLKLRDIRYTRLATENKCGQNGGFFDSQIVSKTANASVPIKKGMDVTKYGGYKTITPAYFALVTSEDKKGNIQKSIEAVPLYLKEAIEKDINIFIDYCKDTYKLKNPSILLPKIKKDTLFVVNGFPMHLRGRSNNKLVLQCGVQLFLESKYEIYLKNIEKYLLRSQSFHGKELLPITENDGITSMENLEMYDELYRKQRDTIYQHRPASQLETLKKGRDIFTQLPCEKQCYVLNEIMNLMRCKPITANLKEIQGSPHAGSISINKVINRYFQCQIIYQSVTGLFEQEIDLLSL

Sequence of OMNI-119 (metagenomic, unknown) (chain, as listed by the source): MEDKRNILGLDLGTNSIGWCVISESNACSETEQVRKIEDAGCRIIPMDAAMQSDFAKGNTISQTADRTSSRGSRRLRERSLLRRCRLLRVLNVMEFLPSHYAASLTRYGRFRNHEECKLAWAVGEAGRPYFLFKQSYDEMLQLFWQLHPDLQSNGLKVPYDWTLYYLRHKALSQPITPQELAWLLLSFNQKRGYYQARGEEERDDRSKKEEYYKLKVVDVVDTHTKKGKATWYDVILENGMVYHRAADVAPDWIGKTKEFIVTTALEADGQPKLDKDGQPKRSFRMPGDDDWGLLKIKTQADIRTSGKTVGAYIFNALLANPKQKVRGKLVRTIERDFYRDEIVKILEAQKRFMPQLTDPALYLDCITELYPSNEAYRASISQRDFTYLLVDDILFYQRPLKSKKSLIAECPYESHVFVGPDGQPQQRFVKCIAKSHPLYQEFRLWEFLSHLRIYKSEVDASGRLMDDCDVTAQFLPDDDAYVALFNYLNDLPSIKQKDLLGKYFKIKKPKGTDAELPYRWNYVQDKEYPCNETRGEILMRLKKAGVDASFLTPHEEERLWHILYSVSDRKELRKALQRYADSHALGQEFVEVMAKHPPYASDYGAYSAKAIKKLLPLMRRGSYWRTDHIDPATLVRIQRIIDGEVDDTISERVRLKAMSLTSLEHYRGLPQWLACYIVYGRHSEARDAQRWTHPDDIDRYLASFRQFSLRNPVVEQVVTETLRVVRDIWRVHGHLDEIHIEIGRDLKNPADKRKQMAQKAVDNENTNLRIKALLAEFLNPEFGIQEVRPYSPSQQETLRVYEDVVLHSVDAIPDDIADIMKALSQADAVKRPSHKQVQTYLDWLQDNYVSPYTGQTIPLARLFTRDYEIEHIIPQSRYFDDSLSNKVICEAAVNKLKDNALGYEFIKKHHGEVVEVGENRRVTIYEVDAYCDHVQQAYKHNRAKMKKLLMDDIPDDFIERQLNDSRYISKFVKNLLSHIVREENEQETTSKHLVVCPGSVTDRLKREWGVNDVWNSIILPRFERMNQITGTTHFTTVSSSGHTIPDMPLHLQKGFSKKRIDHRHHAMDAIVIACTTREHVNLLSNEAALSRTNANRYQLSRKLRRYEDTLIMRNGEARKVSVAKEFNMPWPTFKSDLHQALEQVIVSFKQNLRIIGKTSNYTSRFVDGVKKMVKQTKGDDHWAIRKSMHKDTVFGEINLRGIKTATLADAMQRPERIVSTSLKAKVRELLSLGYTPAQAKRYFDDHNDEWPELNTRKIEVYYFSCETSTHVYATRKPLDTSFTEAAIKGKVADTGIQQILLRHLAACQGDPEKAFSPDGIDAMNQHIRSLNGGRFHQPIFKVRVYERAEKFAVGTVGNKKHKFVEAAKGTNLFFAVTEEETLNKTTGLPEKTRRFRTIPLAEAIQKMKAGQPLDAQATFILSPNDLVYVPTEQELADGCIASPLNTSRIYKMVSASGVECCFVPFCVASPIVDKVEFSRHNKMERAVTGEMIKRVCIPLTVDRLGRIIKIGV
Sequence of OMNI-110 (metagenomic, unknown) (chain, as listed by the source): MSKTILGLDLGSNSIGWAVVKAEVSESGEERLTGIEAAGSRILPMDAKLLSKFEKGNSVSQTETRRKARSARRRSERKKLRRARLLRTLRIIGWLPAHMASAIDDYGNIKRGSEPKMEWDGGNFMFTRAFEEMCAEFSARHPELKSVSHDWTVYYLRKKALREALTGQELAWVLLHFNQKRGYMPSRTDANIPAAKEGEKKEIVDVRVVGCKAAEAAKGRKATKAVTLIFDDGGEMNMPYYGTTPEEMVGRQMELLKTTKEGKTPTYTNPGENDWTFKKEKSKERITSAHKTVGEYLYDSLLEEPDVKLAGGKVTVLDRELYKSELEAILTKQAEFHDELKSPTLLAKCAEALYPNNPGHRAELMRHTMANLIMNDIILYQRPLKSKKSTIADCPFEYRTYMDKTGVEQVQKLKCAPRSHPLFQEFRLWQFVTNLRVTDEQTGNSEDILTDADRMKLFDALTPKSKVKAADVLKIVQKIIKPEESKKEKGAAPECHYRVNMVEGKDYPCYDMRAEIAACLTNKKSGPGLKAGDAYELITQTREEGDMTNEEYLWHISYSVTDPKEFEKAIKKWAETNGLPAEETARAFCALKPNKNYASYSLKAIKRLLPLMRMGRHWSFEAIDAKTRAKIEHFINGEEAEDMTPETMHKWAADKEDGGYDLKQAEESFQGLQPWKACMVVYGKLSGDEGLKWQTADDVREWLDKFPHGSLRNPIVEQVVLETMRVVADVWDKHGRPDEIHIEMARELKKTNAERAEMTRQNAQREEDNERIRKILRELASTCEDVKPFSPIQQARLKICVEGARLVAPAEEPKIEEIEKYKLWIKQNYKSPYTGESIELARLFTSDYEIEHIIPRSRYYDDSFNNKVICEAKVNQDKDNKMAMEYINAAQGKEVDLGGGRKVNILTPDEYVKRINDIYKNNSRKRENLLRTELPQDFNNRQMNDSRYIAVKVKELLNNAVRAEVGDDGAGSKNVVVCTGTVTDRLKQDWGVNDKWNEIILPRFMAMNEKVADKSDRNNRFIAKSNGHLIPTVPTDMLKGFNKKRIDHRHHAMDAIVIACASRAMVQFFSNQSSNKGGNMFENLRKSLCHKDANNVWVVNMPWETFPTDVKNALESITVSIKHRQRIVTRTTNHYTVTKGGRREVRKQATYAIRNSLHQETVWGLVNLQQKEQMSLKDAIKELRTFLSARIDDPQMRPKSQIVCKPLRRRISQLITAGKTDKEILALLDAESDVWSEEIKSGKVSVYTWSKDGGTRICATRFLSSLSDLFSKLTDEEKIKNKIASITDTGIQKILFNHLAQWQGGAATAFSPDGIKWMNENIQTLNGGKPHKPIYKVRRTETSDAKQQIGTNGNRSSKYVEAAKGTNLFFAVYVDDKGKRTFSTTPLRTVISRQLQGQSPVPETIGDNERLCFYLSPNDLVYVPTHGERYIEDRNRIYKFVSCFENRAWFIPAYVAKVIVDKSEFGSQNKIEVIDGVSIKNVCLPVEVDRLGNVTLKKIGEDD

GGAAGAGCAGAGCCUUGGUCUCGUUGUGAUUUGCUGAGGAAACUAGCAAAUCACAAUAAGGAUUAUUCCGUUGUGAACACAUUAGGUCCCAACCCAUCGUCCUUUAACGGUGGGUUAUUUUUU / GGAAGAGCAGAGCCTTGGTCTCNNNNNNNN / NNNNNNNNGAGACCAAGGCTCTGCTCTTCC [T2 sgRNA 22 V1 ; T2 protospacer + 8N PAM library (pbPOS T2)]
activity (1-depletion score) [1]: 0.97

GGAAGAGCAGAGCCUUGGUCUCGUUGUGAUUCGCUUCCGAAAGCAAGCGAAUCACAAUAAGGAUUAUUCCGUUGUGAAAACAUUUAAGUCGGGCCUCCUUCGGUUGGCUCGGCUUUUUUU / GGAAGAGCAGAGCCTTGGTCTCNNNNNNNN / NNNNNNNNGAGACCAAGGCTCTGCTCTTCC [T2 sgRNA 18 V1 ; T2 protospacer + 8N PAM library (pbPOS T2)]
activity (1-depletion score) [2]: 0.95

GGAAGAGCAGAGCCUUGGUCUCGUUUUACUUGCCUGUCGAAAGAUAGGCAAUAAAACAAAUAUAAUUUCUUUUGAAAUUAUAUGUAAAAUGUUUAAAGCCCUCCUUUUCAGGGGGGCUUUUUU / GGAAGAGCAGAGCCTTGGTCTCNNNNNNNN / NNNNNNNNGAGACCAAGGCTCTGCTCTTCC [T2 sgRNA 20 V1 ; T2 protospacer + 8N PAM library (pbPOS T2)]
activity (1-depletion score) [3]: 0.96 | activity (1-depletion score) [4]: 0.96

GGAAGAGCAGAGCCUUGGUCUCGUUUGAGAGCCUUGUUAGAAAUAACAAGGCGAGUGCAAAUAAGGUUUAACCGAAUUCACCGUUUAUGGACCGCAUUGUGCGGAUUUUAAAAAAGACUUUCAAAGUCUUUUUU / GGAAGAGCAGAGCCTTGGTCTCNNNNNNNN / NNNNNNNNGAGACCAAGGCTCTGCTCTTCC [T2 sgRNA 23 V1 ; T2 protospacer + 8N PAM library (pbPOS T2)]
activity (1-depletion score) [5]: 0.95

GGAAGAGCAGAGCCUUGGUCUCGUUUGAGAGUAGUGUAAGAAAUUACACUACAAGUUCAAAUAAAAAUUUAUUCUAAUCGCUCUUCGGAGCCUCCACAGGAGUGGAUUUAAGACUUGCUUCGGCGAGUCUUUUUU / GGAAGAGCAGAGCCTTGGTCTCNNNNNNNN / NNNNNNNNGAGACCAAGGCTCTGCTCTTCC [T2 sgRNA 17 V1 ; T2 protospacer + 8N PAM library (pbPOS T2)]
activity (1-depletion score) [6]: 0.94
